In patent US20200277355A1:

Legend:
TNFR1 = experiment: MST, fluorescently labelled TNFR1, TNF-α titrated, without SN10
TNFR2 [1] = experiment: MST, fluorescently labelled TNFR2, TNF-α titrated, without SN10
TNFR2 [2] = experiment: MST competition, fluorescently labelled TNFR2, TNF-α titrated in the presence of 100 µM SN10
TNF-α = experiment: MST, fluorescently labelled TNF-α, TNFR1 titrated, without SN10

Which Kd (TNFR1) does the source give for TNF-α (ligand) here?
Its Kd is 0.116 µM.

And the Kd (TNFR2 [1])?
The Kd was 0.328 µM.

And the KD in the presence of 100µM SN10 (TNFR2 [2])?
The KD in the presence of 100µM SN10 was 0.384 µM.

With TNFR1 (receptor) as the substance, how does the Kd (TNF-α) read?
The Kd was 0.00284 µM.
